# Assay results reported in patent US20260015426A1 (23ANDME, published 2026).
# Substitutions are numbered along the chain they refer to. Numbers in names are those of the source.
# B1: Parent Fab (Fab of h11C5_C59Y/A43S) (Fab, V domains shown)
# VH: EVQLVESGGGLVQPGGSLRLSCAASGFTFSNYAMSWVRQAPGKGLEWVATVTEGGDYNYYLDDVKGRFTISRDNAKNSLYLQMNSLRAEDTAVYYCARDRWPYFFDYWGQGTLVTVSS
# VL: DIQMTQSPSSLSASVGDRVTITCRASENIYSNLAWYQQKPGKSPKLLVYGAKNLADGVPSRFSGSGSGTDYTLTISSLQPEDFATYYCQHFWTTPRTFGGGTKVEIK
# notes: Fab with 8xHis tag; also called parental Fab of h11C5_C59Y/A43S
# B2: H12 Fab (VH M34V) (Fab, V domains shown)
# VH: B1 VH with M34V
# VL: B1 VL
# notes: Fab with 8xHis tag
# B3: H11 Fab (VH W97F) (Fab, V domains shown)
# VH: B1 VH with W101F
# VL: B1 VL
# notes: Fab with 8xHis tag
# B4: K17 Fab (VL A51Y/W92K) (Fab, V domains shown)
# VH: B1 VH
# VL: B1 VL with A51Y, W92K
# notes: Fab with 8xHis tag
# B5: c11C5_C59A (antibody, IgG1, V domains shown)
# VH: EVQLVESGGGLVKPGGSLKLSCAASGFTFSNYAMSWVRQTPEKRLEWVATVTEGGDYNYALDDVKGRFTISRDNANDNLYLQMSHLKSEDSARYYCARDRWPYFFDYWGQGTTLTVSS
# VL: DIQMTQSPASLSVSVGETVTITCRASENIYSNLAWYQQKQGRSPQLLVYGAKNLADGVPSRFSGSGSGTQYSLNINSLQSEDFGTYYCQHFWTTPRTFGGGTKLEIK
# notes: Murine VL and VH, human CL and IgG1 CH1-CH3 domains
# B6: c11C5 (chimeric 11C5) (antibody, IgG1, V domains shown)
# VH: B5 VH with A60C
# VL: B5 VL
# notes: as for B5
# B7: m11C5_C59A (antibody, mouse IgG2a, V domains shown)
# VH: B5 VH
# VL: B5 VL
# notes: Murine IgG2a constant domains
# B8: m11C5_C59Y (antibody, mouse IgG2a, V domains shown)
# VH: B5 VH with A60Y
# VL: B5 VL
# notes: Murine IgG2a constant domains
# B9: m11C5_C59T (antibody, mouse IgG2a, V domains shown)
# VH: B5 VH with A60T
# VL: B5 VL
# notes: Murine IgG2a constant domains
# B10: m11C5_C59S (antibody, mouse IgG2a, V domains shown)
# VH: B5 VH with A60S
# VL: B5 VL
# notes: Murine IgG2a constant domains
# B11: m11C5_C59V (antibody, mouse IgG2a, V domains shown)
# VH: B5 VH with A60V
# VL: B5 VL
# notes: Murine IgG2a constant domains
# B12: h11C5_C59S (antibody, human IgG1, V domains shown)
# VH: B1 VH with Y60S
# VL: B1 VL with S43A
# notes: Human IgG1/kappa constant domains
# B13: h11C5_C59A (antibody, human IgG1, V domains shown)
# VH: B1 VH with Y60A
# VL: B1 VL with S43A
# notes: as for B12
# B14: h11C5_C59T (antibody, human IgG1, V domains shown)
# VH: B1 VH with Y60T
# VL: B1 VL with S43A
# notes: as for B12
# B15: K13/H3 Fab (VL-A51Y/W92I, VH-V51S) (Fab, V domains shown)
# VH: B1 VH with V51S
# VL: B1 VL with A51Y, W92I
# notes: Fab with 8xHis tag
# B16: K13/H2 Fab (VL-A51Y/W92I, VH-R96D) (Fab, V domains shown)
# VH: B1 VH with R100D
# VL: B1 VL with A51Y, W92I
# notes: Fab with 8xHis tag
# B17: K10/H2 Fab (VL-A51Y, VH-R96D) (Fab, V domains shown)
# VH: B1 VH with R100D
# VL: B1 VL with A51Y
# notes: Fab with 8xHis tag
# B18: K10/H3 Fab (VL-A51Y, VH-V51S) (Fab, V domains shown)
# VH: B1 VH with V51S
# VL: B1 VL with A51Y
# notes: Fab with 8xHis tag
# B19: K13/H12 Fab (VL-A51Y/W92I, VH-M34V) (Fab, V domains shown)
# VH: B1 VH with M34V
# VL: B1 VL with A51Y, W92I
# notes: Fab with 8xHis tag
# B20: K17/H3 Fab (VL-A51Y/W92K, VH-V51S) (Fab, V domains shown)
# VH: B1 VH with V51S
# VL: B1 VL with A51Y, W92K
# notes: Fab with 8xHis tag
# B21: K17/H2 Fab (VL-A51Y/W92K, VH-R96D) (Fab, V domains shown)
# VH: B1 VH with R100D
# VL: B1 VL with A51Y, W92K
# notes: Fab with 8xHis tag
# Target: T1, hu-M-IL1RAP construct, positions S21-T367 (extracellular domain of the membrane form of human IL1RAP) (human, UniProt Q9NPH3 21-367)
# T1 construct: Biotinylated when captured on the Biacore chip
# T1 sequence: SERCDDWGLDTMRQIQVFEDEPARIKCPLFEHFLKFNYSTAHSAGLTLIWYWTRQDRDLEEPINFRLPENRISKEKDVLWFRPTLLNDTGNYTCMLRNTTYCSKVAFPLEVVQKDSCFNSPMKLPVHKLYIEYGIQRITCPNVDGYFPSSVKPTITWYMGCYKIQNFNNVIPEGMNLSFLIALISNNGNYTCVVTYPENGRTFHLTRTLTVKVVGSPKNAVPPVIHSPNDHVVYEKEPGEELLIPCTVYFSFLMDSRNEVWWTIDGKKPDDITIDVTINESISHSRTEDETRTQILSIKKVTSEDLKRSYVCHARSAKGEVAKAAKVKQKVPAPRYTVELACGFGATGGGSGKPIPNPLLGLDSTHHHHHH
# Assay: SPR, Fab analyte, 37 C
# Method: (§1) Surface plasmon resonance (SPR) analysis was used to determine binding affinity for hu-M-IL1RAP of the purified Fabs containing the selected single, double, and triple mutations in either the VL or VH regions using a BIACORE™ 8K instrument. […] For kinetics measurements, 5 nM biotinylated hu-M-IL1RAP was captured at 10 μL/min to achieve ˜50 response units in the second flow cell (FC2). FC1 was kept as a reference. […] The sensorgrams were recorded and subjected to reference and buffer subtraction before data analysis with the BIACORE® 8K Evaluation Software (version 1.1.1.7442). Association rates (kₒₙ) and dissociation rates (koff) were calculated using a simple one-to-one Langmuir binding model. The equilibrium dissociation constant (KD) was calculated as the ratio of koff/kₒₙ.
Binder,apparent Kd (pooled screen) [nM],apparent koff (pooled screen) [s⁻¹],apparent kon (pooled screen) [M⁻¹ s⁻¹],Kd [nM],koff [s⁻¹],kon [M⁻¹ s⁻¹]
B1,0.268,0.00163,6.08e+06,,,
B2,,,,0.305,0.00174,5.7e+06
B3,,,,0.46,0.00441,9.58e+06
B4,,,,0.0441,0.000159,3.6e+06

# Target: T1, hu-M-IL1RAP construct, positions …
# Assay: SPR, Fab analyte, 25 C
Binder,apparent Kd (pooled screen) [nM],apparent koff (pooled screen) [s⁻¹],apparent kon (pooled screen) [M⁻¹ s⁻¹],Kd [nM],koff [s⁻¹],kon [M⁻¹ s⁻¹]
B1,0.337,0.000468,1.39e+06,,,
B4,,,,0.00637,3.58e-05,5.63e+06

# Target: T1, hu-M-IL1RAP construct, positions …
# Assay: BLI (OCTET), mAb captured, 25 C
# Method: All samples were placed in black 96-well plates and the experiment was performed at 25° C. […] The biosensors were equilibrated in experimental buffer at 25° C. for ten minutes prior to starting the experiment.
# The resulting BLI signal from analyte association and dissociation from the immobilized antibody was analyzed using the Octet Data Analysis software (Pall ForteBio). First, a reference subtraction was performed on all recorded traces using the reference well (biosensor that underwent the same steps as experimental wells but no analyte for the Association step), then all the traces were aligned to the beginning of the Association step.
row,Binder,Kd [nM]
1,B5,0.756
2,B6,0.699
3,B7,0.513
4,B8,0.524
5,B9,1.38
6,B10,0.598
7,B11,0.604
8,B12,1.08
9,B13,2.06
10,B14,3.26

# Target: T1, hu-M-IL1RAP construct, positions …
# Assay: SPR, Fab analyte, 37 C
# Remark: another data set of the same source
# Method: as §1
Binder,Kd [nM],koff [s⁻¹],kon [M⁻¹ s⁻¹]
B15,0.0211,0.000109,5.17e+06
B16,0.0227,0.000115,5.08e+06
B17,0.0201,0.000111,5.54e+06
B18,0.0242,0.000123,5.06e+06
B19,0.0363,0.000178,4.9e+06
B20,0.0315,0.00012,3.81e+06
B21,0.0293,0.000121,4.15e+06

# Target: T2, human IL1RAP (hu-IL1RAP) on human cells (human, UniProt Q9NPH3 21-570)
# T2 sequence: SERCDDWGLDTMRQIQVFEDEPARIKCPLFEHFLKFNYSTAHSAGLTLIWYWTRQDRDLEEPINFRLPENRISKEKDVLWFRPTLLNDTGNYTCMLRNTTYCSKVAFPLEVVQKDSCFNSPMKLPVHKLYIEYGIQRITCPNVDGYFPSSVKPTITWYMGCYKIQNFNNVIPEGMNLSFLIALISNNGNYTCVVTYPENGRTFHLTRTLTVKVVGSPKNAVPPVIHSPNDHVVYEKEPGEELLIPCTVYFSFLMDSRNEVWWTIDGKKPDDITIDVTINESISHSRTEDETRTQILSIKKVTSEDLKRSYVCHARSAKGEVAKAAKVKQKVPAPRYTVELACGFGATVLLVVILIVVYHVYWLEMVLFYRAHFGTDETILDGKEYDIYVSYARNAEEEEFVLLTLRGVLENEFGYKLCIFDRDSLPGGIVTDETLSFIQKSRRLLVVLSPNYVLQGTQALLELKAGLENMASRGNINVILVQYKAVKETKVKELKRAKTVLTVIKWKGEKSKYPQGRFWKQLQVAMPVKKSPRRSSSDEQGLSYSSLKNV
# Assay: cell-based or functional assay
Binder,"HEK-Blue, IL-1β, % inhibition at 100 nM (Fab) [%]","HEK-Blue, IL-1β, IC50 (Fab) [nM]","HEK-Blue, IL-33, % inhibition at 100 nM (Fab) [%]","HEK-Blue, IL-33, IC50 (Fab) [nM]","HEK-Blue, IL-36α, % inhibition at 100 nM (Fab) [%]","HEK-Blue, IL-36α, IC50 (Fab) [nM]"
B1,96,7.45,77,26.4,96,5.09
B15,100,0.898,99,2.07,98,0.462
B16,100,0.539,98,2.39,99,0.548
B17,100,0.552,99,2.17,100,0.481
B18,99,0.642,98,2.43,100,0.582
B20,100,1.32,98,3.53,100,0.8
B21,100,1.86,97,4.71,100,0.93
B4,100,1.59,96,5.38,100,1.27
